Experimental findings from US20250092426, “CAS ENDONUCLEASES AND RELATED METHODS” (Flagship Pioneering Innovations VII, LLC, published 2025) are described below.

In the data set the target is T1, CasEnd-36 (synthetic construct).
T1 chain: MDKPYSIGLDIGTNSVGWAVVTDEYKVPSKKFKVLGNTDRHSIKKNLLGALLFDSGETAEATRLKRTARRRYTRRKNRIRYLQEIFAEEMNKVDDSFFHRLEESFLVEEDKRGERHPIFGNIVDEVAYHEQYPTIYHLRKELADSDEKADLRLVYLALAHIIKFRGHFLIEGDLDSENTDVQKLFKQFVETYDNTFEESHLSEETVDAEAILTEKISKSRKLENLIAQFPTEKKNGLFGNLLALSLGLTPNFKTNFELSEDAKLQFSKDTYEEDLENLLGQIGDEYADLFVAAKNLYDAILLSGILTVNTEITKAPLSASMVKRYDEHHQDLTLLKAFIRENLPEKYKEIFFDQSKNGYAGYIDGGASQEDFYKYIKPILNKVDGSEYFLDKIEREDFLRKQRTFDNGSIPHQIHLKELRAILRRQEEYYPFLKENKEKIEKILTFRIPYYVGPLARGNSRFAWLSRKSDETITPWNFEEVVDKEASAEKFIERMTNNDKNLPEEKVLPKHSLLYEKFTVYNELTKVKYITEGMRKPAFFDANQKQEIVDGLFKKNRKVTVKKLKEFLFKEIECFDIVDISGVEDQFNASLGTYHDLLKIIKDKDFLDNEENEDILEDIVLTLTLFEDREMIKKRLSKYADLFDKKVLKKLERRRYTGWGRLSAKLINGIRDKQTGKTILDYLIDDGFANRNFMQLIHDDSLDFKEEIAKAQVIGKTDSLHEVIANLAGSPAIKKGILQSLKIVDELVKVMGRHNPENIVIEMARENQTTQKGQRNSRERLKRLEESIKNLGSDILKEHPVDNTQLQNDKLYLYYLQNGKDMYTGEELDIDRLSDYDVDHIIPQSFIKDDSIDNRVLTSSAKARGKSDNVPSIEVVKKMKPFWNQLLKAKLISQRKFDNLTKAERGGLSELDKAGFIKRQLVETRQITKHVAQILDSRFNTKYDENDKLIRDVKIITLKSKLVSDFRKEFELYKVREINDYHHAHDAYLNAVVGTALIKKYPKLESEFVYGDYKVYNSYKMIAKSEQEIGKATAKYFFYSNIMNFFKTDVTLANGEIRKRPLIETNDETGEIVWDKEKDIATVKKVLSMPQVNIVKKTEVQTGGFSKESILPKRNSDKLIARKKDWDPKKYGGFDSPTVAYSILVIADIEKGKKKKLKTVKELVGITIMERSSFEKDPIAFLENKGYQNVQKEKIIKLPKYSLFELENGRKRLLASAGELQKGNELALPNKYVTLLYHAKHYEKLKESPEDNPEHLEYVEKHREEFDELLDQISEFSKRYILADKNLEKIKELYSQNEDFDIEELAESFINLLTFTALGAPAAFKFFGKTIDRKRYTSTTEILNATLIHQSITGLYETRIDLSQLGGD
The experiment in a line: cell_activity; +++; HEK293T; PAM not stated. A digest of the protocol: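 BFP-to-GFP conversion via reverse transcriptase fusion with each Cas endonuclease plus template RNA: 200 ng of each plasmid nucleofected into 250,000 BFP-expressing HEK293T cells (program DS-150). Percent GFP+ cells by flow cytometry at day 4 measured editing.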

B1: BFP-to-GFP template RNA ; BFP reporter protospacer (ssRNA ; dsDNA)
RNA: GCCGAAGCACUGCACGCCGUGUUUUAGAGCUAGAAAUAGCAAGUUAAAAUAAGGCUAGUCCGUUAUCAACUUGAAAAAGUGGCACCGAGUCGGUGCACCCUGACGUACGGCGUGCAGUGCUU
DNA 1: GCCGAAGCACTGCACGCCGT
DNA 2: ACGGCGTGCAGTGCTTCGGC
With B1, the activity is ≥ 100 % of reference.
